In series [1] the test system is FP(eGFP)-DBP (synthetic construct; expressed in E. coli BL21 (DE3)). Kind of series: EMSA. Conditions: EMSA: 1x TE (10 mM Tris, 1 mM EDTA, pH 8.0) with 50% (v/v) glycerol, 10 ul, DNA stock ~31.4 nM, protein stocks 74 nM-148 uM, 0.5x TBE 4-20% PAGE, temperature ….
In series [2] the target is T1, DBP peptide KWKWKKA (synthetic construct).
T1 chain: KWKWKKA
Kind of series: UV absorbance quenching at 260 nm; stoichiometry 3 bp per DBP; EMSA: 1x TE (10 mM Tris, 1 mM EDTA, pH 8.0) with 50% (v/v) glycerol, 10 ul, DNA stock ~31.4 nM, protein stocks 74 nM-148 uM, 0.5x TBE 4-20% PAGE, temperature not stated; spectra in 1x TE; imaging in TE pH 8.0. Conditions: label: none (EtBr post-stain in EMSA); blunt.

As to “CTACTAGCACAATCGACTGTACGGACCGATCGAGTCACTAGCAGTCTAGCAA (double strand) [52-mer random dsDNA]”, the Kd (usually the equilibrium constant for the complex coming apart) in series [1] stood at 14.7 µM.

B1: 52-mer random dsDNA (dsDNA)
DNA 1: CTACTAGCACAATCGACTGTACGGACCGATCGAGTCACTAGCAGTCTAGCAA
DNA 2: TTGCTAGACTGCTAGTGACTCGATCGGTCCGTACAGTCGATTGTGCTAGTAG
Consider B1, for which the binding result in series [2] is recorded as “binds”.
